Measured values published in the MegaScale stability set (Tsuboyama et al. 2023).

B1: EHEE_rd2_0196 (parent)
chain: TETRTFDSEEEAKKAQKEAEKQGRTVTITRRDDRWEVRFD
B2: 2M8U (parent)
chain: TKAQVIEAFKVFDRDGNGYVTVDYLRKVLNELGDMMPADEIEEMIYEADPQNSGYVQYETFVGMLFL

Variants of: B1
Test: folding stability dG (cDNA display proteolysis); higher = more stable
Conditions: PBS, room temperature

Folding stability dG [kcal/mol]: each site, then its substitutions
D40: Y 2.8, W 2.89, T 3.15, V 3.21

Variants of: B2
Test: as above
Conditions: PBS, room temperature

Folding stability dG [kcal/mol] of substitutions, site by site:
F9: V 3.27, L 4.1, Y 2.1, P 2.32, R 1.98, N 2.22, S 2.13, I 4.09, T 2.47, M 3.82, E 1.96, H 2.14, K 2.18, C 3.12, G 2.1, D 1.85, A 2.63, Q 2.08, W 1.95
Q4: D 3.28, G 2.99, S 3.47, W 3.08, L 3.21, P 2.35, C 3.56, I 3.15, T 3.04, M 3.31, R 3.34, A 3.53, E 3.41, N 3.09, K 3.38, H 3.12, V 3.02, Y 2.97, F 2.87
V11: F 3.01, I 3.38, S 3.56, Y 3.07, M 3.24, A 3.77, K 3.72, R 3.63, L 3.44, Q 3.65, P 3.14, C 3.39, E 3.52, T 3.35, H 3.32, G 3.28, D 3.13, N 3.51, W 3.05
R14: W 3.32, L 3.75, P 3.5, N 3.34, M 3.69, D 3.5, S 3.58, Q 3.49, Y 3.69, I 3.77, H 3.68, F 4.03, T 3.81, V 3.83, C 3.42, A 3.65, E 3.62, K 3.55, G 3.35
A8: V 2.84, H 3.02, N 2.81, T 2.67, P 2.02, C 3.46, S 3.11, D 2.49, G 2.64, F 3.23, R 3.6, L 3.56, I 3.5, Y 3.17, Q 3.3, E 2.59, M 3.76, K 3.62, W 3.56
I6: V 2.86, E 2.81, A 2.25, T 2.72, M 3.42, G 2.34, H 2.76, Y 2.56, K 2.38, N 2.55, R 2.46, S 2.25, C 3.4, F 2.6, D 2.38, L 3.66, P 1.65, W 2.18, Q 2.31
N17: C 2.99, P 1.86, S 4.02, V 3.27, Y 3, G 2.96, L 3.39, F 3.06, W 2.95, T 3.95, A 3.12, R 3.04, Q 3.12, E 3.08, I 3.1, K 3.01, M 3.15, D 3.44, H 3.03
G16: D 3.28, R 2.65, K 3.04, L 2.97, F 2.75, M 3.04, V 2.42, C 2.92, A 2.96, S 3.03, I 2.21, Q 3.25, P 2.11, N 3.36, W 2.29, H 2.95, T 2.43, E 2.93, Y 2.49
F12: H 3.24, I 3.04, Y 3.71, S 2.68, N 3.06, M 3.33, T 2.39, L 3.08, A 3.36, D 2.69, Q 3.12, R 2.48, P 1.89, K 2.54, G 3.5, W 3.32, E 3.15, C 3.15, V 3.03
D15: L 3.17, H 2.69, P 2.51, T 2.97, Q 3.02, Y 2.96, E 3.55, W 2.76, R 1.81, V 2.94, G 2.75, C 2.9, K 2.32, M 3.03, A 3.13, I 3.02, F 2.79, N 2.97, S 2.84
K10: D 2.26, P 2.08, I 3.32, W 3.01, N 2.74, C 3.51, L 3.25, V 3.17, G 2.97, F 3.21, R 3.46, T 2.77, Q 3.16, E 3.02, S 2.86, M 3.15, Y 2.79, H 2.88, A 3.13
K2: E 3.07, A 3.47, D 2.24, F 2.94, M 3.65, Y 3.24, P 3.2, C 3.6, W 2.67, H 3.11, G 2.52, R 3.02, L 3.3, T 2.79, S 2.98, V 3.4, I 3.46, N 2.56
E7: I 3.07, M 3.13, A 3.46, P 1.91, H 2.93, Y 2.7, K 3.1, G 2.87, V 3.08, S 2.76, Q 2.96, D 3.41, T 2.53, L 3.28, N 3.17, W 2.42, C 3.41, R 2.85, F 2.86
D13: K 1.39, N 1.76, G 1.79, M 2.39, W 2.7, C 3.16, S 1.57, R 1.21, A 1.97, F 2.65, I 2.4, T 2.06, Y 2.29, V 2.3, Q 1.87, E 2.11, H 1.95, L 2.6, P 1.49
T1: N 3.18, G 2.88, L 3.3, R 3.33, H 3.16, A 3.13, W 3.1, E 2.94, I 3.61, F 2.91, V 3.32, M 3.21, P 2.6, Y 2.83, C 3.76, Q 3.13, K 3.48, D 2.96, S 3.34
G18: H 2.17, D 2.28, I 2.57, F 2.65, K 2.53, C 2.87, A 2.63, E 2.38
V5: R 1.91, A 2.77, E 1.95, F 3.59, Y 4.08, D 1.89, M 3.85, H 2.36, P 1.77, Q 2.09, L 3.95, W 4.09, N 2.04, K 1.82, I 3.81, G 1.89, T 2.49, C 3.17, S 2.1
A3: M 3.24, R 3.23, G 2.93, E 3.69, P 2.67, C 3.48, V 3.2, Y 2.81, W 2.9, L 3.21, S 3.46, N 3.25, F 3, K 3.31, H 3.22, T 3.14, I 3.27, Q 3.56, D 3.28
